{
  "source": "paper PMC9332313",
  "about": "“Folding and Binding Mechanisms of the SH2 Domain from Crkl” (Biomolecules, 2022)",
  "binders": {"B1": {"name": "dansylated Pax_(112–123) peptide (Dans-GEEEHV-pY-SFPNK) (peptide)", "peptide": "Dansyl-GEEEHV[pY]SFPNK", "notes": "The dansyl group is the FRET acceptor of Trp14 of the SH2 domain; source: synthetic peptide, bought: GenScript"}},
  "settings_in_all_cases": "both partners purified",
  "key": {"[1]": {"biological_target": "T1, SH2 domain of Crkl protein (residues 1-111), H33A variant (UniProt P46109 1-111, H33A)", "T1 construct": "Crkl adaptor protein, SH2 domain, residues 1-111, His33 replaced by alanine; Site-directed mutant of m1 (QuikChange); source: E. coli BL21 (DE3), purified (HisTrap nickel column, desalting); not shown: His tag, N-terminal, kept", "T1 sequence (P46109 1-111 H33A)": "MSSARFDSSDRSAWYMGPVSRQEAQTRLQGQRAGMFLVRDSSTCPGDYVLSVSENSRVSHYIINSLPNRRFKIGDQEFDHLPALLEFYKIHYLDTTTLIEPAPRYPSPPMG", "experiment": "stopped-flow fluorescence kinetics (FRET); dansyl-Pax112-123 constant at 2 μM mixed with Crkl-SH2 2 to 10 μM (pseudo-first-order, kon); koff by displacement of the preincubated 2 µM complex with excess non-dansylated Pax112-123 (30 μM); 283 K; 50 mM TrisHCl pH 8.5, 0.5 M NaCl"}, "[2]": {"biological_target": "T2, SH2 domain of Crkl protein (residues 1-111), H80A variant (UniProt P46109 1-111, H80A)", "T2 construct": "Crkl adaptor protein, SH2 domain, residues 1-111, His80 replaced by alanine; Site-directed mutant of m1 (QuikChange); source: E. coli BL21 (DE3), purified (HisTrap nickel column, desalting); not shown: His tag, N-terminal, kept", "T2 sequence (P46109 1-111 H80A)": "as the sequence (P46109 1-111 H33A) above, with A33H, H80A counted along it", "experiment": "stopped-flow fluorescence kinetics (FRET); dansyl-Pax112-123 constant at 2 μM mixed with Crkl-SH2 2 to 10 μM (pseudo-first-order, kon); koff by displacement of the preincubated 2 µM complex with excess non-dansylated Pax112-123 (30 μM); 283 K; 50 mM TrisHCl pH 8.5, 0.5 M NaCl"}, "[3]": {"biological_target": "T3, SH2 domain of Crkl protein (residues 1-111), H91A variant (UniProt P46109 1-111, H91A)", "T3 construct": "Crkl adaptor protein, SH2 domain, residues 1-111, His91 replaced by alanine; Site-directed mutant of m1 (QuikChange); source: E. coli BL21 (DE3), purified (HisTrap nickel column, desalting); not shown: His tag, N-terminal, kept", "T3 sequence (P46109 1-111 H91A)": "as the sequence (P46109 1-111 H33A) above, with A33H, H91A counted along it", "experiment": "stopped-flow fluorescence kinetics (FRET); dansyl-Pax112-123 constant at 2 μM mixed with Crkl-SH2 2 to 10 μM (pseudo-first-order, kon); koff by displacement of the preincubated 2 µM complex with excess non-dansylated Pax112-123 (30 μM); 283 K; 50 mM TrisHCl pH 8.5, 0.5 M NaCl"}, "[4]": {"biological_target": "T4, SH2 domain of Crkl protein (residues 1-111), wild type (UniProt P46109 1-111)", "T4 construct": "Crkl adaptor protein, SH2 domain, residues 1-111; Subcloned in pET28b+; all experiments were done on the N-terminally His-tagged protein; also called Crkl-SH2; Crkl SH2 domain; source: E. coli BL21 (DE3), purified (HisTrap nickel column, desalting); not shown: His tag, N-terminal, kept", "T4 sequence (P46109 1-111)": "as the sequence (P46109 1-111 H33A) above, with A33H counted along it", "experiment": "stopped-flow fluorescence kinetics (FRET); dansyl-Pax112-123 constant at 2 μM mixed with Crkl-SH2 2 to 10 μM (pseudo-first-order, kon); koff by displacement of the preincubated 2 µM complex with excess non-dansylated Pax112-123 (30 μM); 283 K; 50 mM TrisHCl pH 8.5, 0.5 M NaCl"}, "[5]": {"biological_target": "T1, SH2 domain of Crkl protein (residues …)", "experiment": "stopped-flow fluorescence kinetics (FRET); dansyl-Pax112-123 constant at 2 μM mixed with Crkl-SH2 2 to 10 μM (pseudo-first-order, kon); koff by displacement of the preincubated 2 µM complex with excess non-dansylated Pax112-123 (30 μM); 283 K; 50 mM BisTRIS pH 6.8, 0.5 M NaCl"}, "[6]": {"biological_target": "T2, SH2 domain of Crkl protein (residues …)", "experiment": "stopped-flow fluorescence kinetics (FRET); dansyl-Pax112-123 constant at 2 μM mixed with Crkl-SH2 2 to 10 μM (pseudo-first-order, kon); koff by displacement of the preincubated 2 µM complex with excess non-dansylated Pax112-123 (30 μM); 283 K; 50 mM BisTRIS pH 6.8, 0.5 M NaCl"}, "[7]": {"biological_target": "T3, SH2 domain of Crkl protein (residues …)", "experiment": "stopped-flow fluorescence kinetics (FRET); dansyl-Pax112-123 constant at 2 μM mixed with Crkl-SH2 2 to 10 μM (pseudo-first-order, kon); koff by displacement of the preincubated 2 µM complex with excess non-dansylated Pax112-123 (30 μM); 283 K; 50 mM BisTRIS pH 6.8, 0.5 M NaCl"}, "[8]": {"biological_target": "T2, SH2 domain of Crkl protein (residues …)", "experiment": "stopped-flow fluorescence kinetics (FRET); dansyl-Pax112-123 constant at 2 μM mixed with Crkl-SH2 2 to 10 μM (pseudo-first-order, kon); koff by displacement of the preincubated 2 µM complex with excess non-dansylated Pax112-123 (30 μM); 283 K; 50 mM BisTRIS pH 6.0, 0.5 M NaCl"}, "[9]": {"biological_target": "T3, SH2 domain of Crkl protein (residues …)", "experiment": "stopped-flow fluorescence kinetics (FRET); dansyl-Pax112-123 constant at 2 μM mixed with Crkl-SH2 2 to 10 μM (pseudo-first-order, kon); koff by displacement of the preincubated 2 µM complex with excess non-dansylated Pax112-123 (30 μM); 283 K; 50 mM BisTRIS pH 6.0, 0.5 M NaCl"}, "[10]": {"biological_target": "T4, SH2 domain of Crkl protein (residues …)", "experiment": "stopped-flow fluorescence kinetics (FRET); dansyl-Pax112-123 constant at 2 μM mixed with Crkl-SH2 2 to 10 μM (pseudo-first-order, kon); koff by displacement of the preincubated 2 µM complex with excess non-dansylated Pax112-123 (30 μM); 283 K; 50 mM BisTRIS pH 6.0, 0.5 M NaCl"}},
  "note": "Square brackets hold non-standard residues; d marks the D form. Ends that are not written are not given here. * marks the point of attachment. pY = N[C@@H](Cc1ccc(OP(=O)(O)O)cc1)C(=O)O; Dansyl = CN(C)c1cccc2c(S(=O)(=O)*)cccc12",
  "data": [
    {"binder": "B1", "values": [
      {"measurement": "Kd", "setting": "[1]", "value": "2.1 ± 0.3", "unit": "µM"},
      {"measurement": "koff", "setting": "[1]", "value": "26.9 ± 2.8", "unit": "s⁻¹"},
      {"measurement": "kon", "setting": "[1]", "value": "1.26e+07 ± 1.4e+06", "unit": "M⁻¹ s⁻¹"},
      {"measurement": "Kd", "setting": "[2]", "value": "3.2 ± 0.5", "unit": "µM"},
      {"measurement": "koff", "setting": "[2]", "value": "32.5 ± 2.7", "unit": "s⁻¹"},
      {"measurement": "kon", "setting": "[2]", "value": "1.02e+07 ± 1.2e+06", "unit": "M⁻¹ s⁻¹"},
      {"measurement": "Kd", "setting": "[3]", "value": "2.6 ± 0.1", "unit": "µM"},
      {"measurement": "koff", "setting": "[3]", "value": "34.9 ± 0.5", "unit": "s⁻¹"},
      {"measurement": "kon", "setting": "[3]", "value": "1.36e+07 ± 600000", "unit": "M⁻¹ s⁻¹"},
      {"measurement": "Kd", "setting": "[4]", "value": "3.5 ± 0.3", "unit": "µM"},
      {"measurement": "koff", "setting": "[4]", "value": "41.6 ± 0.9", "unit": "s⁻¹"},
      {"measurement": "kon", "setting": "[4]", "value": "1.2e+07 ± 1.1e+06", "unit": "M⁻¹ s⁻¹"},
      {"measurement": "Kd", "setting": "[5]", "value": "3.4 ± 0.2", "unit": "µM"},
      {"measurement": "koff", "setting": "[5]", "value": "22.4 ± 0.5", "unit": "s⁻¹"},
      {"measurement": "kon", "setting": "[5]", "value": "6.6e+06 ± 400000", "unit": "M⁻¹ s⁻¹"},
      {"measurement": "Kd", "setting": "[6]", "value": "3.1 ± 0.2", "unit": "µM"},
      {"measurement": "koff", "setting": "[6]", "value": "21.6 ± 0.4", "unit": "s⁻¹"},
      {"measurement": "kon", "setting": "[6]", "value": "7.1e+06 ± 400000", "unit": "M⁻¹ s⁻¹"},
      {"measurement": "Kd", "setting": "[7]", "value": "3 ± 0.1", "unit": "µM"},
      {"measurement": "koff", "setting": "[7]", "value": "23.4 ± 0.4", "unit": "s⁻¹"},
      {"measurement": "kon", "setting": "[7]", "value": "7.8e+06 ± 300000", "unit": "M⁻¹ s⁻¹"},
      {"measurement": "Kd", "setting": "[8]", "value": "3.2 ± 0.1", "unit": "µM"},
      {"measurement": "koff", "setting": "[8]", "value": "19.6 ± 0.3", "unit": "s⁻¹"},
      {"measurement": "kon", "setting": "[8]", "value": "6.1e+06 ± 300000", "unit": "M⁻¹ s⁻¹"},
      {"measurement": "Kd", "setting": "[9]", "value": "3 ± 0.1", "unit": "µM"},
      {"measurement": "koff", "setting": "[9]", "value": "20 ± 0.3", "unit": "s⁻¹"},
      {"measurement": "kon", "setting": "[9]", "value": "6.6e+06 ± 200000", "unit": "M⁻¹ s⁻¹"},
      {"measurement": "Kd", "setting": "[10]", "value": "2.6 ± 0.2", "unit": "µM"},
      {"measurement": "koff", "setting": "[10]", "value": "20.8 ± 0.3", "unit": "s⁻¹"},
      {"measurement": "kon", "setting": "[10]", "value": "7.9e+06 ± 600000", "unit": "M⁻¹ s⁻¹"}
    ]}
  ]
}
